# Laboratory results: the RNAGym collection of RNA variant scans (doi:10.1093/nar/gkz1192)
# B1: CPEB3 Ribozyme (parent)
# chain: UAACAGGGGGCCACAGCAGAAGCGUUCACGUCGCAGCCCCUGUCAGAUUCUGGUGAAUCUGCGAAUUCUGCUGUAUAUCUC
# Variants of: B1
# Experiment: self-cleavage, relative activity (ratio to wild type); higher = more cleavage; in vitro, sequencing
# How it was run: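 After error-prone PCR and barcoding, CPEB3 ribozyme mutant libraries were transcribed with T7 RNA polymerase at 37°C for 5 hours, then given 15 min with DNase I before an EDTA stop, and they cleaved during both steps. Reverse transcription with template switching preceded Illumina sequencing. Relative activity divides a variant's cleaved/total read fraction by the unmutated ribozyme's. At least 5 reads were required per variant, and three batches were averaged.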
row,Variant,self-cleavage
1,U69A U72G,0.49
2,U69A U72C,0.5
3,U69A U72A,0.33
4,U74C A75U,1.26
5,U74C A75G,1.25
6,U72A A75C,0.78
7,U72A A75G,1.12
8,U72A A75U,1.22
9,G70U A77G,0.4
10,G73A A75G,1.19
11,U69G U72C,0.44
12,U69G U72A,0.35
13,U69C U78A,0.66
14,U69C U78G,0.61
15,U69C U78C,0.69
16,U72G U80C,1.19
17,U69G U74C,0.38
18,U69G U74G,0.97
19,U74A U80C,1.24
20,U74A U80A,1.26
21,U74A U78A,1.18
22,U74A U78C,1.23
23,U72A U76G,0.54
24,U72A U76C,0.97

row,Variant,self-cleavage
1,U72A U76A,0.72
2,A77G C81A,1.2
3,A75G U76A,1.05
4,A75G U76C,0.94
5,A75G U76G,0.43
6,U74G,1.24
7,U74A,1.25
8,U74C,1.23
9,U69C U74C,0.74
10,U69C U74G,0.88
11,U69C U74A,0.55
12,A75G A77G,0.57
13,A75G A77U,1.05
14,U72G A75G,1.2
15,A75U U80G,1.26
16,A75U U80C,1.1
17,A75U U80A,1.25
18,U78C U80A,1.2
19,U78C U80G,1.15
20,U78C U80C,0.82
21,G73A A77G,1.31
22,G73A U78C,1.32
23,U72G C79U,1.21
24,U76A C79A,1.2

row,Variant,self-cleavage
1,G70C A77G,0.49
2,U72A U80C,1.29
3,U72A U80A,1.11
4,U72A U80G,0.99
5,G70A U80C,0.45
6,G70A U80A,1
7,A75C U76G,1.25
8,A75U A77G,1.18
9,A75U A77U,1.2
10,G70U U78A,0.48
11,G70A U74A,0.73
12,G70A U74C,0.69
13,U69C C81U,0.5
14,U69C C81A,1.16
15,U69C C81G,0.89
16,U72A U74C,1.16
17,U72A U74A,1.34
18,U69A U76A,0.84
19,U69A U76G,0.7
20,U69A U76C,0.7
21,U72A G73C,1.25
22,U72A G73A,1.28
23,U74A U76C,1.34
24,G73U C79U,1.32

row,Variant,self-cleavage
1,U78G U80C,0.94
2,U76G C81A,1.14
3,U72G U74C,1.04
4,U72C G73U,1.48
5,U72C G73A,1.25
6,U78C,1.02
7,U78G,1.1
8,U78A,1.12
9,C71G A77U,0.13
10,U69G C79U,0.72
11,U69A G73A,1.16
12,U69A G73U,0.93
13,U69A G73C,0.65
14,U72G U76C,0.97
15,U72G U76A,0.54
16,U69C G70U,0.25
17,U69C G70A,0.24
18,U69C G70C,0.22
19,G70U U80A,0.67
20,G70A U72A,0.33
21,G70A U72C,0.42
22,U72G G73A,1.3
23,U78A U80C,1.07
24,U78A U80G,1.29

row,Variant,self-cleavage
1,U78A U80A,1.23
2,U69A A77U,0.75
3,U69A A77G,0.72
4,U69C A75G,0.5
5,U69C A75U,0.44
6,U69C G73U,0.88
7,U69C G73A,0.99
8,A77C,0.98
9,A77G,1.06
10,A77U,1.11
11,U72C U74C,1.22
12,U72C U74G,1.25
13,U72C U74A,1.24
14,C68U U80C,1.08
15,U69G U78C,0.71
16,U69G U78A,0.45
17,C71G U80G,0.4
18,A77U U80G,1.26
19,A77U U80C,1.18
20,A77U U80A,1.18
21,U69C C79U,0.74
22,U69C C79G,0.72
23,U69A U80G,0.76
24,U69A U80A,0.74

row,Variant,self-cleavage
1,U69A U80C,0.56
2,U72G A77U,0.71
3,U72G A77G,1
4,U74G U78C,1.26
5,U74G U78A,1.26
6,G70A U78A,0.43
7,G70A U78C,0.8
8,G70A U78G,0.46
9,U69A G70A,0.24
10,A75C U78C,1.15
11,C71A A75U,0.17
12,A75U U78A,1.11
13,A75U U78C,1.15
14,U74C U78G,1.17
15,U74C U78A,1.29
16,U74C U78C,1.3
17,U69G G73A,0.98
18,U72C,1.13
19,U72G,0.98
20,U72A,0.81
21,U72C U80A,1.24
22,U72C U80C,1.24
23,U72C U80G,1.23
24,C79A,1.19

row,Variant,self-cleavage
1,U74A A75U,1.29
2,U74A A75C,1.44
3,U74A A75G,1.31
4,U69A A75G,0.53
5,U69A A75U,0.66
6,U69A A75C,0.55
7,U69G A75U,0.78
8,U74A A77G,1.26
9,U69G C71A,0.09
10,U76G,0.9
11,U76C,1.1
12,U76A,1.14
13,U69A C81U,0.84
14,U69A C81A,0.98
15,C71A U78G,0.11
16,C71A U78C,0.49
17,G73A U76C,1.26
18,A77U U78A,0.9
19,A77U U78C,1.05
20,U78A C81U,0.8
21,A77U C81A,1.31
22,U74G U76C,1.16
23,U78A C79U,1.29
